Drawing on paper PMC314469, “Protein Interaction Networks by Proteome Peptide Scanning” (PLoS Biology, 2004), this text covers normalised SPOT signal, Boehringer light units (BLU); mean over the file's lines of this peptide for 28 molecules.

The labels stand for the following.
B1: Q06055 26-39 (peptide)
chain: SAVVLKRPEILTDE
B2: Q9NV38 3-16 (peptide)
chain: RVLSLLRPWRPLRA
B3: Q9NP17 122-135 (peptide)
chain: RYLILKRPGFQEHD
B4: O43193 136-149 (peptide)
chain: RYLAISRPLRARVL
B5: Q96DQ6 175-188 (peptide)
chain: RVLHLRRPGGPPHV
B6: Q07912 741-754 (peptide)
chain: RVPIPPRPTRPHVQ
B7: Q14764 501-514 (peptide)
chain: SAGRPKRPHARRAL
B8: Q9NPI5 198-211 (peptide)
chain: SAPSPARPARTQGP
B9: Q8WU34 71-84 (peptide)
chain: AVWSPRRPTATRDP
B10: Q9NPN8 118-131 (peptide)
chain: SAKELRRPPPRSPQ
B11: Q9UD05 286-299 (peptide)
chain: RVPIPPRPVKPDYR
B12: Q10466 5697-5710 (peptide)
chain: RVIGLLRPLKDVTV
B13: Q9UQ05 500-513 (peptide)
chain: RVHRLPRPLKQRML
B14: Q9UIG2 1726-1739 (peptide)
chain: SALRPKRPETPKQT
B15: Q9UHD4 30-43 (peptide)
chain: SAPPPQRPFRVSDH
B16: Q96DL6 316-329 (peptide)
chain: SAPGPRRPAPALLA
B17: Q99412 18-31 (peptide)
chain: RYLGITRPHKMLTT
B18: P21453 335-348 (peptide)
chain: SAGKFKRPIIAGME
B19: O00763 939-952 (peptide)
chain: RVKYIKRPGAVLEA
B20: P01814 35-48 (peptide)
chain: RVSWIRRPPGKALE
B21: Q9UGB8 794-807 (peptide)
chain: SAHTPGRPPRVTKD
B22: P21918 138-151 (peptide)
chain: RYWAISRPFRYKRK
B23: Q96BQ9 4-18 (peptide)
chain: SAPPPPRPPEEPAP
B24: Q99754 28-41 (peptide)
chain: SASGIKRPMASEVP
B25: Q9P2T0 193-206 (peptide)
chain: RVEELSRPKRFYLE
B26: Q92536 412-425 (peptide)
chain: RWKEPKRPRPLKLS
B27: O76074 102-115 (peptide)
chain: SASEFDRPLRPIVV
B28: Q92817 837-850 (peptide)
chain: AVSAPKRPRVAPLQ

One experiment concerns the target T1, amphyphisin SH3 (AMPH_HUMAN), P49418.
T1 chain: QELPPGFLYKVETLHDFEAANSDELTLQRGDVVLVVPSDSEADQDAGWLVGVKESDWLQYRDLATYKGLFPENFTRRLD
Briefly: SPOT array.
Take B1: the normalised SPOT signal, Boehringer light units (BLU); mean over the file's lines of this peptide came to 42.7.

B2 had a normalised SPOT signal, Boehringer light units (BLU); mean over the file's lines of this peptide of 1430.

B3 returned a normalised SPOT signal, Boehringer light units (BLU); mean over the file's lines of this peptide of 23.9.

The molecule B4 yielded a normalised SPOT signal, Boehringer light units (BLU); mean over the file's lines of this peptide of 1320.

As to B5, the normalised SPOT signal, Boehringer light units (BLU); mean over the file's lines of this peptide amounted to 21.6.

Take B6: the normalised SPOT signal, Boehringer light units (BLU); mean over the file's lines of this peptide turned out to be 9630.

For the molecule B7, the normalised SPOT signal, Boehringer light units (BLU); mean over the file's lines of this peptide is 24.8.

In the case of B8, the normalised SPOT signal, Boehringer light units (BLU); mean over the file's lines of this peptide is 4310.

B9 had a normalised SPOT signal, Boehringer light units (BLU); mean over the file's lines of this peptide of 36.2.

The molecule B10 displayed a normalised SPOT signal, Boehringer light units (BLU); mean over the file's lines of this peptide of 33.8.

With B11, the normalised SPOT signal, Boehringer light units (BLU); mean over the file's lines of this peptide is 646.

As to B12, the normalised SPOT signal, Boehringer light units (BLU); mean over the file's lines of this peptide was found to be 205.

In turn, B13 gave a normalised SPOT signal, Boehringer light units (BLU); mean over the file's lines of this peptide of 165.

B14 showed a normalised SPOT signal, Boehringer light units (BLU); mean over the file's lines of this peptide of 588.

B15 had a normalised SPOT signal, Boehringer light units (BLU); mean over the file's lines of this peptide of 4530.

Take B16: the normalised SPOT signal, Boehringer light units (BLU); mean over the file's lines of this peptide was 412.

In turn, B17 gave a normalised SPOT signal, Boehringer light units (BLU); mean over the file's lines of this peptide of 102.

Turning to B18, the normalised SPOT signal, Boehringer light units (BLU); mean over the file's lines of this peptide is 42.5.

Turning to B19, the normalised SPOT signal, Boehringer light units (BLU); mean over the file's lines of this peptide was found to be 27.1.

Molecule B20 yielded a normalised SPOT signal, Boehringer light units (BLU); mean over the file's lines of this peptide of 15.

Molecule B21 registered a normalised SPOT signal, Boehringer light units (BLU); mean over the file's lines of this peptide of 1950.

With B22, the normalised SPOT signal, Boehringer light units (BLU); mean over the file's lines of this peptide worked out at 1070.

Molecule B23 had a normalised SPOT signal, Boehringer light units (BLU); mean over the file's lines of this peptide of 85.5.

B24 returned a normalised SPOT signal, Boehringer light units (BLU); mean over the file's lines of this peptide of 17.6.

Regarding B25, the normalised SPOT signal, Boehringer light units (BLU); mean over the file's lines of this peptide turned out to be 225.

In turn, B26 gave a normalised SPOT signal, Boehringer light units (BLU); mean over the file's lines of this peptide of 56.9.

Take B27: the normalised SPOT signal, Boehringer light units (BLU); mean over the file's lines of this peptide was determined as 131.

In the case of B28, the normalised SPOT signal, Boehringer light units (BLU); mean over the file's lines of this peptide was determined as 59.

The next experiment has as its target endophilin SH3 (SH3G2_HUMAN), Q99962. In words: SPOT array.
As for B1, the normalised SPOT signal, Boehringer light units (BLU); mean over the file's lines of this peptide turned out to be 38.4.

Turning to B2, the normalised SPOT signal, Boehringer light units (BLU); mean over the file's lines of this peptide was 366.

B3 displayed a normalised SPOT signal, Boehringer light units (BLU); mean over the file's lines of this peptide of 228.

In turn, B4 returned a normalised SPOT signal, Boehringer light units (BLU); mean over the file's lines of this peptide of 943.

B5 registered a normalised SPOT signal, Boehringer light units (BLU); mean over the file's lines of this peptide of 55.3.

In turn, B6 came in with a normalised SPOT signal, Boehringer light units (BLU); mean over the file's lines of this peptide of 19700.

In turn, B7 yielded a normalised SPOT signal, Boehringer light units (BLU); mean over the file's lines of this peptide of 702.

In turn, B8 had a normalised SPOT signal, Boehringer light units (BLU); mean over the file's lines of this peptide of 4590.

For B9, the normalised SPOT signal, Boehringer light units (BLU); mean over the file's lines of this peptide is 97.9.

Take B10: the normalised SPOT signal, Boehringer light units (BLU); mean over the file's lines of this peptide amounted to 116.

B11 gave a normalised SPOT signal, Boehringer light units (BLU); mean over the file's lines of this peptide of 6030.

For B12, the normalised SPOT signal, Boehringer light units (BLU); mean over the file's lines of this peptide is 261.

With B13, the normalised SPOT signal, Boehringer light units (BLU); mean over the file's lines of this peptide was 121.

Molecule B14 gave a normalised SPOT signal, Boehringer light units (BLU); mean over the file's lines of this peptide of 723.

For the molecule B15, the normalised SPOT signal, Boehringer light units (BLU); mean over the file's lines of this peptide came to 5270.

As to B16, the normalised SPOT signal, Boehringer light units (BLU); mean over the file's lines of this peptide came out at 3420.

Molecule B17 displayed a normalised SPOT signal, Boehringer light units (BLU); mean over the file's lines of this peptide of 231.

The molecule B18 registered a normalised SPOT signal, Boehringer light units (BLU); mean over the file's lines of this peptide of 46.1.

Take B19: the normalised SPOT signal, Boehringer light units (BLU); mean over the file's lines of this peptide is 36.2.

The molecule B20 returned a normalised SPOT signal, Boehringer light units (BLU); mean over the file's lines of this peptide of 326.

On to B21, for which the normalised SPOT signal, Boehringer light units (BLU); mean over the file's lines of this peptide was 268.

The molecule B22 came in with a normalised SPOT signal, Boehringer light units (BLU); mean over the file's lines of this peptide of 417.

Consider B23, for which the normalised SPOT signal, Boehringer light units (BLU); mean over the file's lines of this peptide is 65.5.

B24: the normalised SPOT signal, Boehringer light units (BLU); mean over the file's lines of this peptide was found to be 81.2.

B25 returned a normalised SPOT signal, Boehringer light units (BLU); mean over the file's lines of this peptide of 210.

Regarding B26, the normalised SPOT signal, Boehringer light units (BLU); mean over the file's lines of this peptide came to 419.

With B27, the normalised SPOT signal, Boehringer light units (BLU); mean over the file's lines of this peptide was 54.

Turning to B28, the normalised SPOT signal, Boehringer light units (BLU); mean over the file's lines of this peptide turned out to be 240.
